Reference: patent US6541208B1, “Diagnostic method for distinguishing HIV-associated dementia from other forms of dementia” (University of Maryland Biotechnology Institute, priority 1998, dated 2003)
Entries after “also recorded” stand apart in the source; their conditions may differ.

B1: Tat1-86: Tat1-86 (Intracel), HIV-1 Tat protein (protein, UniProt P04608 1-86, looked up)
chain: MEPVDPRLEPWKHPGSQPKTACTNCYCKKCCFHCQVCFITKALGISYGRKKRRQRRRAHQNSQTHQASLSKQPTSQPRGDPTGPKE
modifications: full-length
notes: Tat1-86 (Intracel), HIV-1 Tat protein
B2: Tat: Highly purified recombinant Tat1-72, HIV-1 encoded transactivator protein (protein, UniProt P04608 1-72, looked up, fragment)
chain: MEPVDPRLEPWKHPGSQPKTACTNCYCKKCCFHCQVCFITKALGISYGRKKRRQRRRAHQNSQTHQASLSKQ

How the values were obtained:
[1] = system: astrocytic MCP-1 expression; assay: Northern blot analysis of MCP-1 RNA in stimulated human astrocytes; type: cell-based
Source text: FIG. 1A—Total RNA was extracted from T lymphoblastoid HUT 78 cells (ATCC), and from variously treated human astrocytes. Ten μg per lane were then run on a 1% agarose-6% formaldehyde gel. Following transfer of RNA to nitrocellulose, the blot was probed with the full-length cDNA for MCP-1, and subsequently, RANTES. RNA from untreated astrocytes was run in lanes 2 and 4. […] Astrocytic expression of RANTES was not detected.
FIG. 1B—Similar experience except that RNA from HUT 78 cells (lane 1) was compared to RNA from astrocytes that were unstimulated (lane 2) or stimulated for 2 hr with 100 nM Tat (lane 3), 25 μM TPCK followed by 100 nM Tat (lane 4) or 25 μM TPCK (lane 5).
Brain tissue from 12-14 wk human fetuses was obtained in accordance with NIH guidelines. The tissue was mechanically disrupted by aspiration through a 19-gauge needle, washed in Eagle's minimal essential medium (EMEM) and then distributed into tissue culture flasks. Cells were maintained in EMEM containing 10% fetal bovine serum, 2 mM L-glutamine and 5 μg/ml gentamicin. Several days later, flasks were placed into an orbital incubator shaker at 37° C. and 210 rpm for 6 hr. Non-adherent cells were removed. A portion of the adherent cells were later stained with an antibody to glial fibrallary acidic protein and only those cultures which were >95% positive were used. […]

[2] = system: astrocytes; assay: Astrocyte proliferation assay (tritiated thymidine); type: cell-based, human; conditions: Tat 10-1000 nM, twenty hr after administration
Protocol: Astrocytes were grown in 96 well plates. At 70% confluency, cells were treated with varying concentrations of exogenous Tat, in media, which contained 1 μCi per well of tritiated thymidine (New England Nuclear). […] Filters were then dried and placed into scintillation fluid for counting in a Betaplate Apparatus.

[3] = system: astrocytic release of MCP-1; assay: Immunoassay (ELISA) and Western blot of MCP-1 in astrocyte supernatants; type: cell-based, human
Protocol: FIG. 2A—Astrocytes were grown to near confluency in […]. Each well contained 10^6 cells in 1 ml medium. Medium was then changed and astrocytes were stimulated with exogenous Tat in doses ranging from 0.01 to 1.0 μM. Twenty hr later, samples were taken for analysis by immunoassay (R&D Systems). […] Data are shown as means +S.E. for three replicates.
FIG. 2B—Similar experiment except that astrocytes were stimulated with 100 nM Tat or with an equivalent amount of Tat that had first been either digested with tripsin (Tat-tr) or immunoabsorbed (Tat-im).
FIG. 3—Western blot analysis of MCP-1 in astrocyte supernatants. In lanes 2-7, 50 μg of protein from variously treated astrocyte supernatants were run on a 15% Tris/Glycine denaturing gel. Three ng of non-glycosylated recombinant MCP-1 (R&D Systems) were run in lane 1 as a control. Following protein transfer to nitrocellulose, the blot was probed with a polyclonal antibody with recognized human MCP-1 (R&D Systems). After washing, an appropriate secondary antibody was applied (horse radish peroxidase conjugated anti-goat, [Santa-Cruz Biotechnology]) and electrochemilurninescence (Amersham) was used to visualize the bands. […] The lower arrow represents a band, which runs with an apparent molecular mass of 9 kDa while the upper band, of slighter high molecular mass, is likely to represent MCP-1, which has been altered by the addition of O-linked carbohydrates. Both forms of MCP-1 are active in vitro.
Astrocytes (10^6 per 1 ml medium) were stimulated with 100 nM HIV-1IIIB gp41 (Intracel) or 100 nM HIV-1IIB gp 120 (Intracel), and supernantants were assessed 24 hr. later by immunoassay (R&D Systems).
Trypsin digestion of Tat was performed by the addition of 25 μl of 0.25% trypsin per μg of Tat. The mixture was then incubated for 4 hr. before the 1:1 addition of soybean tripsin inhibitor (Sigma).
Immunoabsorption of Tat was performed as described previously by Magnusson et al. (1995). Briefly, a Tat specific monoclonal antibody (Intracel) was bound to protein A-sepharose (Pharmacia), washed, and then incubated with Tat for 60 min at room temperature, followed by centrifugation.
(§1) To determine whether increased expression of MCP-1 would correlate with increased protein synthesis or release, we next analyzed the supernatants of Tat treated astrocytes by ELISA and Western blot. […] This increase was specific in that astrocytic release of RANTES, MIP-1α and MIP-1β was not observed.

[4] = system: astrocytic release of RANTES, MIP-1α and MIP-1β; assay: ELISA detection of RANTES, MIP-1α and MIP-1β in astrocyte supernatants; type: cell-based, human; conditions: Tat treated astrocytes; ELISA detection limit 10 pg/ml
Protocol: MIP1-1α, MIP-1β and RANTES were detected by ELISA (R&D Systems). These ELISAs could detect concentrations as low as 10 pg/ml. Protein measurements were determined by comparison to a standard curve, run in duplicate with each assay.
as §1

| Molecule | ability to increase astrocytic expression of MCP-1, compared with Tat1-72 ([1]; Tat1-86 (Intracel) versus recombinant Tat1-72) | astrocyte proliferation [2] | astrocytic MCP-1 expression (MCP-1 encoding RNA) ([1]; 100 nM Tat, 2 or 4 hr stimulation, human astrocytes) | release of MCP-1 after pre-treatment of Tat with trypsin ([3]; 100 nM equivalent of Tat digested with trypsin (Tat-tr)) | release of MCP-1 after immunoabsorption of Tat with a specific antibody ([3]; 100 nM equivalent of immunoabsorbed Tat (Tat-im)) | astrocytic release of MCP-1 ([3]; Tat 0.01 to 1.0 μM, 20 hr, 10^6 cells in 1 ml medium) | concentrations of Tat sufficient to increase astrocytic MCP-1 release ([3]; human astrocytes) | astrocytic release of RANTES, MIP-1α and MIP-1β [4] |
| --- | --- | --- | --- | --- | --- | --- | --- | --- |
| B1 | similar |  |  |  |  |  |  |  |
| B2 |  | no measurable increase in astrocyte proliferation | increase in astrocytic MCP-1 expression; also recorded: increase in MCP-1 encoding RNA as early as 2 hr | could be inhibited | could be inhibited | significant increase in MCP-1 release; also recorded: dose-dependent increase in astrocytic release of MCP-1 | low nanomolar | not observed |
